Assay results: US20220389113A1, “BINDING PROTEINS TO CUB DOMAIN-CONTAINING PROTEIN (CDCP1)” (COMMONWEALTH SCIENTIFIC AND INDUSTRIAL RESEARCH ORGANISATION, priority 2019, published 2022)

Tests used:
OVMZ6 cells = experiment: Colony formation assay, OVMZ6 cells; type: cell-based, human; details: even at the highest concentration
Description: MMAE-conjugated 10D7 and IgG1K were prepared as described (Nielsen C F, et al., (2017) Oncotarget. 8(27):44605-24.53) and drug-antibody ratio (DAR) determined by reverse phase LC/MS as reported (Basa L. et al., (2013) Methods Mol Biol. 1045:285-93.) on an ABSCIEX Triple TOF spectrometer (AB SCIEX Framingham, Mass.) coupled to a Shimadzu Nexera 1D UHPLC system (Shimadzu, Rydalmere, Australia). ADC peak identification was performed as reported with DAR determined by peak area integration (Hamblett K J, et al., (2004) Clin Cancer Res. 10(20):7063-70; Yao X, et al., (2015) Breast Cancer Res Treat. 153(1):123-33). Colony-formation assays were performed as described (Crowley L C, et al., (2016) Cold Spring Harb Protoc. 2016(8):pdb.prot087171) on cells (100,000/ml) treated with the indicated concentrations of 10D7, 10D7-MMAE, IgG or IgG-MMAE overnight before being lifted and replated in 24-well plates (200 cells/well). After a defined growth period media was removed and cells gently PBS washed before staining with 0.1% crystal violet (Sigma-Aldrich) in 2% ethanol. After 20 minutes and stained cells were scanned (700 nm) on a LiCOR System (Odyssey V3.0 software) with images analyzed using the ColonyArea ImageJ plugin to quantify colony area and intensity (Guzmán C, et al., (2014) PLoS One. 9(3):e92444.). […]

TKCC02 cells = experiment: Survival assay with cytotoxin-conjugated antibodies, TKCC02; type: cell-based, human; details: TKCC02, 1 μg/ml, 12 h treatment then 72 h growth
Description: (§1) The relative number of viable cells was then measured by adding the CellTiter AQueous One Solution Reagent to each well and measuring absorbance at 490 nm as described above. […] Cells were imaged by wide-field fluorescence microscopy and the total area of confluence for each cell type was quantified by image analysis using Image J software.

TKCC2.1 cells xenografts = experiment: Pancreatic cancer subcutaneous xenograft, MMAE-labelled 10D7 and chimeric 10D7; details: 125 μg iv, treated twice
[1] = tested on: TKCC05 cells and normal human pancreatic stellate cells; experiment: Co-culture assay of TKCC05 cells and normal human pancreatic stellate cells; type: cell-based
Description: For survival assays, cells (5,000/well) were plated in 96-well plates and allowed to attach for 24 h. Cells were then treated for 24 h with 10D7 (5 μg/ml) or isotype control IgG (5 μg/ml) before addition of gemcitabine (0.02 to 500 nM) and incubation for another 72 h. In assays assessing the effect of cytotoxin-conjugated antibodies, cells were treated for 12 h with 10D7-MMAE, IgG-MMAE, 10D7 or IgG (0.0625 to 1.0 μg/ml) then washed before the media was replaced with standard growth medium for 72 h. The relative number of viable cells was then measured by adding the CellTiter AQueous One Solution Reagent to each well and measuring absorbance at 490 nm as described above. In co-culture assays, mKO2 expressing TKCC05 PDAC cells (2,000 cells/well) were co-cultured with GFP expressing normal human pancreatic stellate cells (2,000 cells/well) for 24 h in a 1:1 mixture of TKCC05 and hPSC growth medium before treatments with 10D7-MMAE, IgG-MMAE, 10D7 or IgG (0.0625 to 1.0 μg/ml), IgG or 10D7 (1 μg/ml) or PBS as above. Cells were imaged by wide-field fluorescence microscopy and the total area of confluence for each cell type was quantified by image analysis using Image J software.
The generated antibody-drug conjugate (ADC), 10D7-MMAE, has an average drug-antibody ratio (DAR) of 4.5 to 4.7, and retains the functional ability to induce phosphorylation of CDCP1 and Src (see Example 7). […]

TKCC10 cells = experiment: Survival assay with cytotoxin-conjugated antibodies, TKCC10; type: cell-based, human; details: TKCC10, 1 μg/ml, 12 h treatment then 72 h growth
Description: as §1

B1: 10D7-MMAE (conjugate)
VH: EVQLQQFGAELVKPGASVKISCKASGYSFSDFNIEWLKQSHGKSLEWIGDINPNYDSTNYNQKFKGRATLTVDKSSSTAYMEVRSLTSEDTAVYYCARLGYGYAMDYWGQGTSVTVSS
VL: NIVMTQSPQSMSMSVGERVTLSCKASENVGAYVSWFQQKPDQSPKLLILAASNRYTGVPARFIGSGSATDFTLTISSVQAEDLADYHCGQSYTYPYTFGGGTKLEIKRADAAPTVS
Question: How did the colony formation (OVMZ6 cells) turn out when B1 was run?
Answer: unaffected

Question: And the survival of cells (TKCC02 cells)?
Answer: about 25%

Question: What about the “reduction of pancreatic tumour volume” value (TKCC2.1 cells xenografts) of the same molecule?
Answer: superior to gemcitabine

Question: What about the survival of mice (TKCC2.1 cells xenografts) of the same molecule?
Answer: prolonged

Question: What about the “response of TKCC05 cells” value ([1]; CDCP1 expressing cells) of the same molecule?
Answer: very sensitive

Question: What about the “response of normal human pancreatic stellate cells” value ([1]; CDCP1 non-expressing cells) of the same molecule?
Answer: unresponsive

Question: And the survival of cells (TKCC10 cells)?
Answer: about 50%
